US20160251440A1 (Ablynx, published 2016)

Assays:
[1] = target: T1, human CXCR4 (on cells, viral lipoparticles or membrane extracts) (human, UniProt P61073 1-352); test: FACS, Caki-CXCR4 cells
T1 construct: whole, on cells; also called hCXCR4 VLPs; CXCR4-lip

[2] = target: T1, human CXCR4 (on cells, viral …); test: ELISA, CXCR4 viral lipoparticles
[3] = target: T2, recombinant IL-3Rα ectodomain (human, UniProt P26951 19-305); test: ELISA on recombinant IL-3Ra ectodomain (both lower panels)
T2 construct: extracellular domain; also called recombinant IL-3Ra; biotinylated-IL-3Rα ectodomain
T2 sequence (looked up): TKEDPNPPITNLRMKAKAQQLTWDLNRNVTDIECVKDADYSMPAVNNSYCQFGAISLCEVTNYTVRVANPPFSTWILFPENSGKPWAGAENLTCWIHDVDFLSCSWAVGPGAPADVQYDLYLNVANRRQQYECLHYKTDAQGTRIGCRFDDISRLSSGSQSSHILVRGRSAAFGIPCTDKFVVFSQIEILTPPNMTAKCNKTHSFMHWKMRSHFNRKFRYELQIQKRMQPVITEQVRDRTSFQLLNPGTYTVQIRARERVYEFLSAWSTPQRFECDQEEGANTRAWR

[4] = target: T1, human CXCR4 (on cells, viral …); test: cell-based or functional assay
[5] = target: T1, human CXCR4 (on cells, viral …); test: FACS, Jurkat cells
[6] = target: T1, human CXCR4 (on cells, viral …); test: cell-based or functional assay; remark: listed apart in the source
[7] = target: T1, human CXCR4 (on cells, viral …); test: FACS displacement of 30 nM biotin-SDF-1, Caki-CXCR4 cells
[8] = target: T3, CXCR4 and IL-3Rα (CD123) co-expressed on MOLM-13 / THP-1 cells (human, UniProt P61073 1-352; P26951 19-378); test: flow cytometry on MOLM-13 cells (IL-3Ra higher than CXCR4)
T3 construct: whole, on cells; two separate membrane proteins on one cell, not a complex; target of bispecifics on double-positive cells; also called CXCR4+/CD123+ cells

[9] = target: T2, recombinant IL-3Rα ectodomain; test: ELISA on recombinant IL-3Ra ectodomain (panel 'IL-3Ra ELISA', lower left)
[10] = target: T4, human IL12Rβ1, cell-expressed (human, UniProt P42701 24-662); test: flow cytometry on isolated CD8+ T cells of donor D863, anti-Flag detection
T4 construct: whole, on cells; in the context of the heterodimeric receptor; also called IL12Rb1

[11] = target: T5, human IL12Rβ2 extracellular domain Fc-fusion (human, UniProt Q99665 24-622); test: SPR Biacore T100, captured IL12Rβ2-Fc
T5 construct: extracellular domain; bought; also called IL12Rβ2-Fc; hIL-12Rβ2-Fc
T5 sequence (looked up): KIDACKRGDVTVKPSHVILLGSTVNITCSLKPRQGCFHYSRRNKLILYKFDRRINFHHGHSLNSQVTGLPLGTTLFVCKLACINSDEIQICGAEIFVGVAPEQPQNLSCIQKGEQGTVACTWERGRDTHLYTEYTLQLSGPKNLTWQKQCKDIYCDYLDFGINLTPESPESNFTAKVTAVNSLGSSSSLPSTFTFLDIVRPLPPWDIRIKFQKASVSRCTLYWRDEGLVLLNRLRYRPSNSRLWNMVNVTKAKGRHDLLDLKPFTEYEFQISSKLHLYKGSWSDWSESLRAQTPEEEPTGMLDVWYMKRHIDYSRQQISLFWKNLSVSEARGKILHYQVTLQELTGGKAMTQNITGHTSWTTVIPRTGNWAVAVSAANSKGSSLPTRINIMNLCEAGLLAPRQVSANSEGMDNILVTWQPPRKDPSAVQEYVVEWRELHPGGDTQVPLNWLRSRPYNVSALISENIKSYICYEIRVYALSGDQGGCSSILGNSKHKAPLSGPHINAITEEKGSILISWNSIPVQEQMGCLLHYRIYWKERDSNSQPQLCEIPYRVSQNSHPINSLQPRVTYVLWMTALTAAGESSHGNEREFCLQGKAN

[12] = target: T6, human IL12Rβ2, cell-expressed (human, UniProt Q99665 24-862); test: FACS, activated human T cells
T6 construct: whole, on cells; in the context of the heterodimeric receptor; also called IL12Rb2
T6 sequence (looked up): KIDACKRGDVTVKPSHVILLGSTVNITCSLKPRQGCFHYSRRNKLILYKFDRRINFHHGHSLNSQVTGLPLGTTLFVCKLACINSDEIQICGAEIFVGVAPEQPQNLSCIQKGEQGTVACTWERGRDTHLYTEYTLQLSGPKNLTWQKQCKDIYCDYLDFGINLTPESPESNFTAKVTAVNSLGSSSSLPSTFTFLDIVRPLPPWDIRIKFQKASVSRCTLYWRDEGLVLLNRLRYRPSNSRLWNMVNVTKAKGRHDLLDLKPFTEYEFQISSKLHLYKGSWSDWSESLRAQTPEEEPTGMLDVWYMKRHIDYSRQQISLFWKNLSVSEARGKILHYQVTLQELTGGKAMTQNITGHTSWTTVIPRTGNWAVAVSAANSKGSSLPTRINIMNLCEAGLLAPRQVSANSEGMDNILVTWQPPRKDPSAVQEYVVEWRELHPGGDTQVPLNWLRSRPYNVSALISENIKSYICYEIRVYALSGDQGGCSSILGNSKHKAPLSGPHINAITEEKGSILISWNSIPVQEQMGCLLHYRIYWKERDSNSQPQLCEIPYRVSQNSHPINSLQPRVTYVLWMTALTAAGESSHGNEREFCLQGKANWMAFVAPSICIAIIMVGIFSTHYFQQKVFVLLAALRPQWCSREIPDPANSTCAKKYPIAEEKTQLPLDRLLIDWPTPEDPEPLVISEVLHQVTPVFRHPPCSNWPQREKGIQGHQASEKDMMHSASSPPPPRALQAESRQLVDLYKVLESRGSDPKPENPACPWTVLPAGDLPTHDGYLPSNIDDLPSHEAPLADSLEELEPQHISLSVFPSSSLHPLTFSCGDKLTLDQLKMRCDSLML

[13] = target: T5, human IL12Rβ2 extracellular domain …; test: competition ELISA, coated IL-12 + 3 nM IL12Rβ2-Fc
[14] = target: T6, human IL12Rβ2, cell-expressed; test: cell-based or functional assay
[15] = target: T5, human IL12Rβ2 extracellular domain …; test: competition ELISA, coated IL-12 + IL12Rβ2-Fc
[16] = target: T7, human CD4, cell-expressed (human, UniProt P01730 26-458); test: flow cytometry on MOLM-13 cells (CD4, no IL12R or IL23R), upper left panel
T7 construct: whole, on cells

[17] = target: T8, human IL12Rβ1 extracellular domain Fc-fusion (human, UniProt P42701 24-545); test: competition ELISA, coated IL-12 + 2 nM IL12Rβ1-Fc
T8 construct: extracellular domain; bought; also called IL12Rβ1-Fc; hIL-12Rβ1-Fc; not shown: Fc part, captured by anti-hIgG

[18] = target: T8, human IL12Rβ1 extracellular domain …; test: SPR Biacore T100, captured IL12Rβ1-Fc
[19] = target: T8, human IL12Rβ1 extracellular domain …; test: competition ELISA, coated IL-12 + IL12Rβ1-Fc
[20] = target: T8, human IL12Rβ1 extracellular domain …; test: competition ELISA, coated IL-23 + 2 nM IL12Rβ1-Fc
[21] = target: T4, human IL12Rβ1, cell-expressed; test: cell-based or functional assay
[22] = target: T8, human IL12Rβ1 extracellular domain …; test: competition ELISA, coated IL-23 + IL12Rβ1-Fc
[23] = target: T4, human IL12Rβ1, cell-expressed; test: cell-based or functional assay; remark: listed apart in the source
[24] = target: T7, human CD4, cell-expressed; test: flow cytometry on MOLM-13 cells (CD4, no IL12R or IL23R), lower left panel

T1 sequence (P61073 whole entry): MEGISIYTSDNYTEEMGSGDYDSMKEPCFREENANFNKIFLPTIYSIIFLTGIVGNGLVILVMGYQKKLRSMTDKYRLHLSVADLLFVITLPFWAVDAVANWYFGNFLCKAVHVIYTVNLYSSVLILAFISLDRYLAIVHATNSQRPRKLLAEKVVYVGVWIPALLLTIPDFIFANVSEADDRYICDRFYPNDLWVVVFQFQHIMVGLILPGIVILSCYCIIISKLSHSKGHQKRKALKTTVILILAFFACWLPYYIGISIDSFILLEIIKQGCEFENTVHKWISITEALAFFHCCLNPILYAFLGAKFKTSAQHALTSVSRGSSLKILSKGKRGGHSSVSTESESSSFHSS
T3 sequence (P61073 whole entry, one chain of several): as the sequence (P61073 whole entry) above

B1: 14D09 (VHH)
VHH: EVQLVESGGGLVQAGGSLRLSCVASGISSSKRNMGWYRQAPGKQRESVATISSGGNKDYTDAVKDRFTISRDTTKNTVYLQMNSLKPEDTAVYYCKIEAGTGWATRRGYTYWGQGTLVTVSS
notes: also called CXCR4#1; 14D9
EC50 [1]: 9.9 nM
EC50 [2]: 7.28 nM
binding result [3]: no binding (tested: 1E-6 M)
IC50, CXCL-12 chemotaxis, Jurkat E6-1 [4]: 10.4 nM
IC50, CXCL-12 chemotaxis, MOLM-13 [4]: 8.62 nM
EC50 [5]: 11 nM
IC50, SDF-1 chemotaxis, Jurkat [6]: 11 nM
IC50 [7]: 18.4 nM

B2: 14A02 (VHH)
VHH: EVQLVESGGGLVQAGGSLRLSCVASGISSSIRNMGWYRQAPGKQRESVATISSGGNKDYTDAVKDRFTISRDTTKNTVYLQMSSLKPEDTAVYYCKIEAGTGWATRRGYTYWGQGTQVTVSS
EC50 [1]: 4 nM
EC50 [2]: 0.73 nM
EC50 [5]: 1.15 nM
IC50, SDF-1 chemotaxis, Jurkat [6]: 0.95 nM
IC50 [7]: 4.1 nM

B3: 14E02 (VHH)
VHH: EVQLVESGGGLVQAGGSLRLSCVASGISSSIRNMGWYRQAPGKQRESVATISSGGNKDYTDAVKDRFTISRDTTKNTVYLQMNSLKPEDTAVYYCKIEAGTGWATRRGYTYWGQGTQVTVSS
notes: also called 14E2
EC50 [1]: 2.6 nM
EC50 [2]: 0.78 nM
IC50 [7]: 13.5 nM

B4: 55A01-35GS-281F12 (bispecific antibody)
chain: EVQLVESGGGSVQAGGSLRLSCTTSGRALNMYVMGWFRQAPGNEREFVAATSSSGGSTSYPDSVKGRFTISRDNAKNTVYLQMNSLKPEDTAAYRCAASPYVSTPTMNILEEYRYWGQGTLVTVSSGGGGSGGGGSGGGGSGGGGSGGGGSGGGGSGGGGSEVQLVESGGGLVQAGDSLRLSCAASGRAFSRYAMGWFRQAPGKEREFVAAIGWGPSKTNYADSVKGRFTISRDNAKNTVYLQMNTLKPEDTAVYSCAAKFVNTDSTWSRSEMYTYWGQGTLVTVSS
notes: also called CD123#2-CXCR4#2; 55A01-281F12
EC50 (read off the curve) [8]: ~10 nM
EC50 (read off the curve) [9]: ~1 nM

B5: IL12Rb2#1: 135B08 (VHH)
VHH: EVQLVESGGRLVQAGDSLRLSCAASGRTFISYRMGWFRQAPGKEREFVAALRWSSSNIDYTYYADSVKGRFSISGDYAKNTVYLQMNSLKAEDTAVYYCAASTRWGVMESDTEYTSWGQGTLVTVSS
notes: also called IL12Rβ2#1; LG135B08
binding result [10]: no binding (tested: 250 nM)
Kd [11]: 2.7 nM
koff [11]: 0.00057 s⁻¹
kon [11]: 210000 M⁻¹ s⁻¹
EC50 [12]: 1.5 nM
IC50 [13]: 4.2 nM
IC50, IFNγ release, PBMC D840 [14]: 13.5 nM
IC50, IFNγ release, T cells D839 [14]: 51 nM
IC50 [15]: 4.2 nM
binding result [16]: no binding (tested: 1E-6 M)

B6: IL12Rb2#2: 135A07 (VHH)
VHH: EVQLVESGGRLVQAGDSLRLSCAASGRTFTSYRMGWFRQAPGKEREFVSALRWSSGNIDYTYYADSVKGRFSISGDYAKNTVYLQMNSLKAEDTAVYYCAASTRWGVMESDTEYTSWGQGTLVTVSS
notes: also called IL12Rβ2#2; LG135A07
Kd [11]: 6.9 nM
koff [11]: 0.0018 s⁻¹
kon [11]: 270000 M⁻¹ s⁻¹
EC50 [12]: 1.8 nM
IC50 [13]: 15 nM
IC50, IFNγ release, PBMC D840 [14]: 40 nM
IC50, IFNγ release, T cells D839 [14]: 67 nM
IC50 [15]: 15 nM
binding result [16]: no binding (tested: 1E-6 M)

B7: IL12Rb1#31: 148F09 (VHH)
VHH: EVQLVESGGGLVQTGGSLRLSCAASGRTPSIIAMGWFRQTPGKEREFVGEIILSKGFTYYADSVKGRFTISRANAKNTITMYLQMNSLKSEDTAVYYCAARQNWSGNPTRTNEYEYWGQGTLVTVSS
notes: also called IL12Rβ1#31; LG148F09
IC50 [17]: 22 nM
Kd [18]: 23 nM
koff [18]: 0.017 s⁻¹
kon [18]: 720000 M⁻¹ s⁻¹
IC50 [19]: 22 nM
IC50 [20]: 10 nM
IC50, IL-17 release, PBMC D840 [21]: 210 nM
IC50 [22]: 10 nM
IC50, IFNγ release, PBMC D840 [23]: 93.5 nM
binding result [24]: no binding (tested: 1E-6 M)
